The record followed here is paper doi:10.1101/2021.12.06.471490 (bioRxiv, 2021).

The target in the test is yeast tubulin heterodimer, Tub1-WT (internal 6X-His) with Tub2 (S. cerevisiae (budding yeast), UniProt P09733 1-447; P02557 1-457). The experiment in a line: pull-down.
yeast tubulin heterodimer, Tub1-WT (internal 6X-His) with Tub2, sequence (P09733 whole entry, chain 1 of 2): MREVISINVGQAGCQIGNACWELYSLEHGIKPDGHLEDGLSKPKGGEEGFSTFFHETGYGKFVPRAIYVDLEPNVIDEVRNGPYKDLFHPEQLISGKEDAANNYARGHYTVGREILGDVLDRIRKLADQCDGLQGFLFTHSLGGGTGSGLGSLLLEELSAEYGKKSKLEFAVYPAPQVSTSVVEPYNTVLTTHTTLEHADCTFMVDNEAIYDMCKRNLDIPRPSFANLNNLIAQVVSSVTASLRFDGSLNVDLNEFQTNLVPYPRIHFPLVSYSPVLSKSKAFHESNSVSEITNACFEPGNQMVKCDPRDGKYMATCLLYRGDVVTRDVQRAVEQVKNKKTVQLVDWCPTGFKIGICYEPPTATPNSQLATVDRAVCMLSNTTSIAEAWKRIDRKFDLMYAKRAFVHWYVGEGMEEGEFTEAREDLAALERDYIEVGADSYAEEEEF
yeast tubulin heterodimer, Tub1-WT (internal 6X-His) with Tub2, sequence (P02557 whole entry, chain 2 of 2): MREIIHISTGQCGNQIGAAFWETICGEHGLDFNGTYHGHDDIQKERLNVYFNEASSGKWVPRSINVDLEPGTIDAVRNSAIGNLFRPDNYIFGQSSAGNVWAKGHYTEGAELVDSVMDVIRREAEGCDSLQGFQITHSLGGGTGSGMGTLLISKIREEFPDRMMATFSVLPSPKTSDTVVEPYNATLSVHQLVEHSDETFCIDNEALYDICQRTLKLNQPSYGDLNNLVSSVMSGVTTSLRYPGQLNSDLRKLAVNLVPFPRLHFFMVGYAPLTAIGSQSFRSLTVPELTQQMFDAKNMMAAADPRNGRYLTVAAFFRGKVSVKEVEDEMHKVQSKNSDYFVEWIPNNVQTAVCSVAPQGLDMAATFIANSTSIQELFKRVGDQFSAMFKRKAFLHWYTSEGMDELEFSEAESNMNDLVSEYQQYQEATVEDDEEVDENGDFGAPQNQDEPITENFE

B1: GST-TOG1/2 (the two TOG domains of Stu2 fused to a GST tag; Stu2 1-590) (domain or fragment, S. cerevisiae (budding yeast), UniProt P46675 1-590, looked up)
chain: MSGEEEVDYTTLPLEERLTYKLWKARLEAYKELNQLFRNSVGDISRDDNIQIYWRDPTLFAQYITDSNVVAQEQAIVALNSLIDAFASSSLKNAHNITLISTWTPLLVEKGLTSSRATTKTQSMSCILSLCGLDTSITQSVELVIPFFEKKLPKLIAAAANCVYELMAAFGLTNVNVQTFLPELLKHVPQLAGHGDRNVRSQTMNLIVEIYKVTGNNSDLLEEILFKKLKPIQVKDLHKLFAKVGDEPSSSKMLFEWEKRELEKKRSQEEEARKRKSILSNDEGEYQIDKDGDTLMGMETDMPPSKQQSGVQIDTFSMLPEETILDKLPKDFQERITSSKWKDRVEALEEFWDSVLSQTKKLKSTSQNYSNLLGIYGHIIQKDANIQAVALAAQSVELICDKLKTPGFSKDYVSLVFTPLLDRTKEKKPSVIEAIRKALLTICKYYDPLASSGRNEDMLKDILEHMKHKTPQIRMECTQLFNASMKEEKDGYSTLQRYLKDEVVPIVIQIVNDTQPAIRTIGFESFAILIKIFGMNTFVKTLEHLDNLKRKKIEETVKTLPNFSIASGSTHSTIETNKQTGPMENKFLLK
On to B1, for which the binding result is listed as “binds”.
